{"source": "paper PMC3569440", "about": "“Recombinant Production of Human Aquaporin-1 to an Exceptional High Membrane Density in Saccharomyces cerevisiae” (PLoS ONE, 2013)", "proteins": {"B1": {"name": "human Aquaporin-1 C-terminally tagged with yeast enhanced GFP and eight histidines (hAQP1-GFP-8His) (natural protein, UniProt P29972 1-269, looked up)", "chain": "MASEFKKKLFWRAVVAEFLATTLFVFISIGSALGFKYPVGNNQTAVQDNVKVSLAFGLSIATLAQSVGHISGAHLNPAVTLGLLLSCQISIFRALMYIIAQCVGAIVATAILSGITSSLTGNSLGRNDLADGVNSGQGLGIEIIGTLQLVLCVLATTDRRRRDLGGSAPLAIGLSVALGHLLAIDYTGCGINPARSFGSAVITHNFSNHWIFWVGPFIGGALAVLIYDFILAPRSSDLTDRVKVWTSGQVEEYDLDADDINSRVEMKPK", "notes": "human Aquaporin-1 (hAQP1), 269 amino acids; coding part of the cDNA without a translational stop codon, fused in frame to yeast enhanced GFP and eight histidines; not N-glycosylated in yeast; Order on the chain: hAQP1, yEGFP, 8 His; also called hAQP1-GFP-His8; Aquaporin-1-GFP; source: S. cerevisiae PAP1500 (plasmid pPAP8230), crude membranes solubilized in CYMAL-5 or DDM; also purified (CYMAL-5, …)"}}, "target": "the molecule itself", "experiment": "SEC; fluorescence-detection size-exclusion chromatography (FSEC); crude membranes (2 mg/ml) solubilized in CYMAL-5 or DDM at a detergent:protein ratio of 3, 50 mM phosphate pH 7.5, 10 mM imidazole, 500 mM NaCl, 4°C; Superose 12 10/300 GL; GFP fluorescence of fractions", "note": "Several values for one entry are separate records, joined by “and”; a condition that tells them apart may be missing. Equal entries are not always repeated.", "data": [{"protein": "B1", "values": [{"measurement": "stoichiometry N", "value": "4 and > 4"}]}]}
